Measured values as given in the supplement of paper PMC10567573.

B1: SMTNL2 (parent)
chain: AFTMAENLANCERLIEVEDMMVMG

Variants of: B1
Experiment: protein stability index of a GFP-peptide fusion (GPS, HEK-293T) (PSI 1-6); higher = more stable
Conditions: c terminus: a fixed tail appended
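Note: lentivirally expressed fusions sorted by FACS into six bins by GFP to DsRed ratio, PSI derived from sequencing read proportions per bin multiplied by bin number.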

Protein stability index of substitutions, site by site:
E18: Q 2.18 | Y 3.52 | P 3.06 | H 2.85 | S 2.01 | M 1.97 | L 2.22 | G 2.52
G24: H 1.59 | Q 2.71 | Y 1.27 | F 2.22 | C 1.52 | A 2.03 | M 1.96 | K 2.31
D19: F 2.37 | Q 2.06 | G 2.52 | S 1.62 | T 1.94 | E 1.48 | P 1.71
M20: Y 1.72 | E 4.02 | V 2.68 | W 2.51 | P 3.77 | N 3.03 | D 4.75
R13: F 1.8 | V 1.49 | A 2.33
F2: E 4.17 | G 4 | T 3.88 | I 2.27 | V 3.18 | K 3.5 | R 2.4
T3: I 1.72 | R 2.11 | G 2.91 | L 1.77 | Q 2.13 | A 2.06 | Y 2.06
M23: Q 3.21 | V 2.38 | T 1.8 | L 1.89 | W 2.1 | D 3.57 | R 1.97
N10: H 2.19 | A 1.84 | Y 2.07 | G 2.79 | V 2 | F 2.53 | S 2.42 | E 2.01
A1: M 1.61 | Y 2.2 | C 1.74 | G 1.74 | K 2.58 | Q 3.22 | D 2.47
V17: F 2.37 | W 2.09 | T 3.14 | P 4.04 | C 1.98 | D 3.57 | Y 2.47 | E 2.97 | L 3.28 | A 2.54 | H 2.35
E12: P 2.37 | F 2.22 | Q 2.41 | V 1.8 | R 1.71 | K 2.46 | H 2.42 | T 2.06 | Y 2.13
V22: M 2.19 | K 2.87 | C 2.19 | R 2.46
M4: G 4.19 | S 4.04 | K 3.77 | L 1.63 | T 3.78 | N 3.76 | Q 4.04 | W 2.27 | R 3.22
E6: R 1.51 | D 2.8 | I 2.69
N7: C 3.03 | R 2.25 | I 2.05 | P 3.41 | V 2.66 | F 1.78 | E 2.21
C11: K 3.59 | Y 2.51 | S 2.37 | I 2.3 | R 3.34 | H 3.63 | A 2.21 | F 2.56
M21: Y 2.22 | F 2.56 | P 3.27 | Q 3 | D 3.83 | H 3.02 | C 2.14
A5: P 3.44 | L 2.48 | N 2.7 | M 2.58
I15: S 3.6 | R 3.89 | M 3 | T 4.25 | Q 4.4 | K 3.9 | A 4 | D 4.49 | P 4.02 | L 2.82
L14: A 3.33 | I 1.87 | T 3.5 | D 4.59 | Q 3.12 | M 2.34 | G 3.96 | K 3.89
E16: D 3.2 | Q 1.48 | S 1.89
L8: M 3.3 | F 3.78 | Y 3.22 | N 3.79 | C 3.81 | A 4.35 | I 2.79 | W 2.83
A9: G 3.16 | W 1.39 | I 1.89 | K 2.3 | N 2.49 | V 2.71 | H 2.34
